In article PMC10681739, “High-throughput data and modeling reveal insights into the mechanisms of cooperative DNA-binding by transcription factor proteins”:

Biological target: T1, ETS1 (Homo sapiens, UniProt P14921)
T1 sequence: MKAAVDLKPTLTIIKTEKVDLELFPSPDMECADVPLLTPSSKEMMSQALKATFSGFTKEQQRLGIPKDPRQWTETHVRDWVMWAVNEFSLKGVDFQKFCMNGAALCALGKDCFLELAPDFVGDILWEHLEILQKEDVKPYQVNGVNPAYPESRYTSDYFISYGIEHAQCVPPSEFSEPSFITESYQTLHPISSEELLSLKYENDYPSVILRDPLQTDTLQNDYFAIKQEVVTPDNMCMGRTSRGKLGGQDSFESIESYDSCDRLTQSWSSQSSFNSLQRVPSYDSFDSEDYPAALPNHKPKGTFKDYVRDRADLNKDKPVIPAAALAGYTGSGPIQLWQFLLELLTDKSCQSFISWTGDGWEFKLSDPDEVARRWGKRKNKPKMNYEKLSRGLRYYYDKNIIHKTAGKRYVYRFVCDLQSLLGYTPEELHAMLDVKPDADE
Test: gcPBM; 1 nM ETS1
Settings: tags: N-terminal GST (pDEST15), kept (PMC6008103); label: surface-attached array probe

B1: Table S2 C row 175 (dsDNA)
DNA 1: CATCTCAAAGCCTCCTGTGGGTGGAGATGGAATGTG
DNA 2: CACATTCCATCTCCACCCACAGGAGGCTTTGAGATG
  binding signal: 414 PBM fluorescence, median of replicate spots

B2: Table S2 C row 123 (dsDNA)
DNA 1: ATGCAGAAGGAATGCTGTGGTAGACAGCATTCCTTT
DNA 2: AAAGGAATGCTGTCTACCACAGCATTCCTTCTGCAT
  binding signal: 407 PBM fluorescence, median of replicate spots

B3: Table S2 C row 125 (dsDNA)
DNA 1: CATTTCAGTAGACTCACCACAAGGTTGTGGCCAGAA
DNA 2: TTCTGGCCACAACCTTGTGGTGAGTCTACTGAAATG
  binding signal: 399 PBM fluorescence, median of replicate spots

B4: Table S2 C row 170 (dsDNA)
DNA 1: TCCTGAACTATTCACTGTGGTGATGAAATATGCTAA
DNA 2: TTAGCATATTTCATCACCACAGTGAATAGTTCAGGA
  binding signal: 432 PBM fluorescence, median of replicate spots

B5: Table S2 C row 82 (dsDNA)
DNA 1: ATTCTAAAATTGGACTGTGGTAAGGGTTGCACAACT
DNA 2: AGTTGTGCAACCCTTACCACAGTCCAATTTTAGAAT
  binding signal: 420 PBM fluorescence, median of replicate spots

B6: Table S2 C row 154 (dsDNA)
DNA 1: CCGTAATCTTCATAAACCTCAATGCTCAAGGTGCAG
DNA 2: CTGCACCTTGAGCATTGAGGTTTATGAAGATTACGG
  binding signal: 438 PBM fluorescence, median of replicate spots

B7: Table S2 C row 3 (dsDNA)
DNA 1: GCGAGAGCAGCAAGAACCACACCCAGCAGCAATGTC
DNA 2: GACATTGCTGCTGGGTGTGGTTCTTGCTGCTCTCGC
  binding signal: 422 PBM fluorescence, median of replicate spots

B8: Table S2 C row 192 (dsDNA)
DNA 1: CAAGGTGGCAGTGATTGTGGCCGGCCACCTATCTGA
DNA 2: TCAGATAGGTGGCCGGCCACAATCACTGCCACCTTG
  binding signal: 408 PBM fluorescence, median of replicate spots

B9: Table S2 C row 138 (dsDNA)
DNA 1: AGTAGTGCTTTTTCAACCACAGACCAACATTTGAGA
DNA 2: TCTCAAATGTTGGTCTGTGGTTGAAAAAGCACTACT
  binding signal: 437 PBM fluorescence, median of replicate spots

B10: Table S2 C row 168 (dsDNA)
DNA 1: AACAGATACTCAAAAACCGCTGGCTGAACACATGGA
DNA 2: TCCATGTGTTCAGCCAGCGGTTTTTGAGTATCTGTT
  binding signal: 425 PBM fluorescence, median of replicate spots

B11: Table S2 C row 38 (dsDNA)
DNA 1: CAATTTAGCCTTTTAACCACTAAACTCCCTTGCCTA
DNA 2: TAGGCAAGGGAGTTTAGTGGTTAAAAGGCTAAATTG
  binding signal: 426 PBM fluorescence, median of replicate spots

B12: Table S2 C row 153 (dsDNA)
DNA 1: GTAACAACACCAAGGACCACAAATGTGTATGTTGAA
DNA 2: TTCAACATACACATTTGTGGTCCTTGGTGTTGTTAC
  binding signal: 421 PBM fluorescence, median of replicate spots

B13: Table S2 C row 32 (dsDNA)
DNA 1: TAGTTGTATGTGGAAACCACAAAACTGAGTCATAAA
DNA 2: TTTATGACTCAGTTTTGTGGTTTCCACATACAACTA
  binding signal: 395 PBM fluorescence, median of replicate spots

B14: Table S2 C row 60 (dsDNA)
DNA 1: AGACTCAGGTGGTAAACCGCAGGCCATTTACATACC
DNA 2: GGTATGTAAATGGCCTGCGGTTTACCACCTGAGTCT
  binding signal: 408 PBM fluorescence, median of replicate spots

B15: Table S2 B row 1578 (dsDNA)
DNA 1: GGCTTCCTGCCCAACTACCAAGAAAAAGTCACAAAG
DNA 2: CTTTGTGACTTTTTCTTGGTAGTTGGGCAGGAAGCC
  binding signal: 12500 PBM fluorescence, median of replicate spots

B16: Table S2 C row 197 (dsDNA)
DNA 1: TTGAACTTAGTAGCAACCACACATGGCCATTATTTG
DNA 2: CAAATAATGGCCATGTGTGGTTGCTACTAAGTTCAA
  binding signal: 416 PBM fluorescence, median of replicate spots

B17: Table S2 C row 23 (dsDNA)
DNA 1: GCTTTGCACAGCTTTGCCACAAAGCCCAGTCTGTGT
DNA 2: ACACAGACTGGGCTTTGTGGCAAAGCTGTGCAAAGC
  binding signal: 399 PBM fluorescence, median of replicate spots

B18: Table S2 B row 1078 (dsDNA)
DNA 1: TGCAGCTTCCTGTCTGAGGCTTTTTGGTCCTTTCAT
DNA 2: ATGAAAGGACCAAAAAGCCTCAGACAGGAAGCTGCA
  binding signal: 12900 PBM fluorescence, median of replicate spots

B19: Table S2 C row 133 (dsDNA)
DNA 1: TTGTAGGGATGACTGACCACAAAAGACAGTGACTCA
DNA 2: TGAGTCACTGTCTTTTGTGGTCAGTCATCCCTACAA
  binding signal: 398 PBM fluorescence, median of replicate spots

B20: Table S2 C row 107 (dsDNA)
DNA 1: TGGCTGAGGGTCTTCTGTGGGTGGACGCATGATTAA
DNA 2: TTAATCATGCGTCCACCCACAGAAGACCCTCAGCCA
  binding signal: 417 PBM fluorescence, median of replicate spots

B21: Table S2 C row 22 (dsDNA)
DNA 1: CTTGTTCAAGCAATTTGAGGTTTTTTAGGGAGGTTG
DNA 2: CAACCTCCCTAAAAAACCTCAAATTGCTTGAACAAG
  binding signal: 428 PBM fluorescence, median of replicate spots

B22: Table S2 C row 69 (dsDNA)
DNA 1: CTGGCAAAGCAGAAGTGTGGTTTCAGAGTCTCCCTC
DNA 2: GAGGGAGACTCTGAAACCACACTTCTGCTTTGCCAG
  binding signal: 405 PBM fluorescence, median of replicate spots

B23: Table S2 C row 152 (dsDNA)
DNA 1: CTTTCATCTCTGACATGTGGCTTCTAAGGGTACACT
DNA 2: AGTGTACCCTTAGAAGCCACATGTCAGAGATGAAAG
  binding signal: 421 PBM fluorescence, median of replicate spots

B24: Table S2 B row 1486 (dsDNA)
DNA 1: TCTGTCGTCCCACTTCCTGCTGCGGATTCCACCTCG
DNA 2: CGAGGTGGAATCCGCAGCAGGAAGTGGGACGACAGA
  binding signal: 12200 PBM fluorescence, median of replicate spots

B25: Table S2 C row 131 (dsDNA)
DNA 1: GAGGCATTATAGAAAACCGCAAGATTTTAGTCTGAG
DNA 2: CTCAGACTAAAATCTTGCGGTTTTCTATAATGCCTC
  binding signal: 420 PBM fluorescence, median of replicate spots

B26: Table S2 C row 130 (dsDNA)
DNA 1: AATAATAGAGAAGACACCACAGTTGCCATGGTATTA
DNA 2: TAATACCATGGCAACTGTGGTGTCTTCTCTATTATT
  binding signal: 414 PBM fluorescence, median of replicate spots

B27: Table S2 C row 85 (dsDNA)
DNA 1: TGTAATCTTTCTTAATGTGGTTAAATTCAAGTTATT
DNA 2: AATAACTTGAATTTAACCACATTAAGAAAGATTACA
  binding signal: 407 PBM fluorescence, median of replicate spots

B28: Table S2 C row 119 (dsDNA)
DNA 1: GGAAAGGTTGACGATAGTGGTTAAGTGGCTCGGCCT
DNA 2: AGGCCGAGCCACTTAACCACTATCGTCAACCTTTCC
  binding signal: 429 PBM fluorescence, median of replicate spots

B29: Table S2 C row 100 (dsDNA)
DNA 1: AGATGAATCACAGAGACCACACATGGAGACCCATCT
DNA 2: AGATGGGTCTCCATGTGTGGTCTCTGTGATTCATCT
  binding signal: 403 PBM fluorescence, median of replicate spots

B30: Table S2 C row 93 (dsDNA)
DNA 1: ATGCTGTCAAAAACTACCACAGACTGATTGGCTTAA
DNA 2: TTAAGCCAATCAGTCTGTGGTAGTTTTTGACAGCAT
  binding signal: 399 PBM fluorescence, median of replicate spots

B31: Table S2 C row 159 (dsDNA)
DNA 1: GGAGAGGAGAAAATGCCCACAGGGTACATGGAAAGC
DNA 2: GCTTTCCATGTACCCTGTGGGCATTTTCTCCTCTCC
  binding signal: 409 PBM fluorescence, median of replicate spots

B32: Table S2 C row 84 (dsDNA)
DNA 1: ATCTATTATGAGCCTACCACCATGCTAGACAAGTTG
DNA 2: CAACTTGTCTAGCATGGTGGTAGGCTCATAATAGAT
  binding signal: 434 PBM fluorescence, median of replicate spots

B33: Table S2 C row 155 (dsDNA)
DNA 1: CTCTTTGGCCTTGTCTGTGGTTCTACCAAATCCCAT
DNA 2: ATGGGATTTGGTAGAACCACAGACAAGGCCAAAGAG
  binding signal: 414 PBM fluorescence, median of replicate spots

B34: Table S2 C row 47 (dsDNA)
DNA 1: CCTACAAATTCCAGCTGTGGTCAGCTGGTGAGCTCT
DNA 2: AGAGCTCACCAGCTGACCACAGCTGGAATTTGTAGG
  binding signal: 408 PBM fluorescence, median of replicate spots

B35: Table S2 C row 13 (dsDNA)
DNA 1: AACTCACTAGTGTTTTGAGGTTTTAATTGACACCAC
DNA 2: GTGGTGTCAATTAAAACCTCAAAACACTAGTGAGTT
  binding signal: 420 PBM fluorescence, median of replicate spots

B36: Table S2 C row 58 (dsDNA)
DNA 1: CATCTGCAGACACTGTGTGGTTTCCAGGTTCCCGAG
DNA 2: CTCGGGAACCTGGAAACCACACAGTGTCTGCAGATG
  binding signal: 406 PBM fluorescence, median of replicate spots

B37: Table S2 B row 665 (dsDNA)
DNA 1: CTCCGTGCCACTACAGCCACTTCCTGCCTTGAAAAC
DNA 2: GTTTTCAAGGCAGGAAGTGGCTGTAGTGGCACGGAG
  binding signal: 13300 PBM fluorescence, median of replicate spots

B38: Table S2 C row 112 (dsDNA)
DNA 1: ACTGTCAAACATTCGACCACAATCTCTGAGGCTGGG
DNA 2: CCCAGCCTCAGAGATTGTGGTCGAATGTTTGACAGT
  binding signal: 409 PBM fluorescence, median of replicate spots

B39: Table S2 C row 27 (dsDNA)
DNA 1: AAAACAAGAACCAAAACCACAAGAACCACAAGAACC
DNA 2: GGTTCTTGTGGTTCTTGTGGTTTTGGTTCTTGTTTT
  binding signal: 420 PBM fluorescence, median of replicate spots

B40: Table S2 C row 1 (dsDNA)
DNA 1: CCCTCATCTGAGAACACCACATTTCTCCCTCTGTCA
DNA 2: TGACAGAGGGAGAAATGTGGTGTTCTCAGATGAGGG
  binding signal: 436 PBM fluorescence, median of replicate spots

B41: Table S2 C row 117 (dsDNA)
DNA 1: ACAGAGCCATTACCTACCACAGAGCTGACGTGAACA
DNA 2: TGTTCACGTCAGCTCTGTGGTAGGTAATGGCTCTGT
  binding signal: 437 PBM fluorescence, median of replicate spots

B42: Table S2 C row 99 (dsDNA)
DNA 1: ACAAGCATTTGATTCTGTGGGTCCCCAATGTTGGAA
DNA 2: TTCCAACATTGGGGACCCACAGAATCAAATGCTTGT
  binding signal: 431 PBM fluorescence, median of replicate spots
